Results as given in the nanobody polyreactivity screen of Harvey et al. (2022).

Experiment: yeast display, Sf9 membrane polyspecificity reagent, FACS + sequencing; frameworks hold sequencing errors
Summary of the method: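 Using colony PCR, genes from sorted yeast display clones were amplified, then sequenced on MiSeq at 2 × 250 and filtered by CDR length. The clones had been stained with 10% biotinylated, detergent-solubilized Sf9 membrane reagent for 1 hour at 4 °C and sorted by FACS into low and high (top ~1%) gates on anti-HA and streptavidin fluorescence. Polyreactivity labels come from the gate of origin.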

Sequence | polyreactivity (PSR sort gate)
QVQLVESGGGLVQAGGSLRLSCAASGITFPYYAMGWYRQAPGKERELVAAISSSGGSTYYADSVKGRFTISRDNAKNTVYLQMNSLKPEDTAVYYCAAQRYINYDYWGQGTQVTVSS | high polyreactivity
QVQLVESGGGLVQAGGSLRLSCAASGFIFAEYAMGWYRQAPGKDRELVAAITSGGSTSYADSVKGRFTISRDNAKNTVYLQMNSLKPEDTAVYYCAATWYYHYNDWKHWYEYGYWGQGTQVTVSS | low polyreactivity
QVQLVESGGGLVQAGGSLRLSCAASGSIFIDNAMGWYRQAPGKERELVAAITVRGASTNYADSVKGRFTISRDIAKNTVYLQMNSLKPEDTAVYYCNAVGLRSPWHQDFLIRYDYWGQGTQVTVSS | low polyreactivity
QVQHVESGGGLVQAGGSLRLSCAASGSIFYIYAMGWYRQAPGKERELVASISRSGGSTYYADSVKGRFTISRDNAKNTVYLQMNSLKPEDTAVYYCAAVITFYRYPPGETYYYWGQGTQVTVSS | high polyreactivity
QVQLVESGGGLVQAGGSLRLSCAASGSIFGRYAMGWYRQAPGKERELVAAISSSGGRTYYADSVKGRFTISRDNAKNTVYLKMNSLKPEDTAVYYCNKDWYYLIPGYNYWGQGTQVTVSS | high polyreactivity
QVHLVESGGGLVQAGGSHRLSCAASGLNFPPNAMGWYRQAPAKESELVASITRSGGSTYYADSVKGRFTISRDNAKNTVYLQMNSLKRDDTAVYYCAAYLDTSRYGVLYDYWGQGTQVTVSS | low polyreactivity
QVQLVESGGGLVQAGGSLRLSCAASGITFYDYTMVWYRQAPGKESELVAVITSAGSTYYADSVKGRFTISRDNAKNTVYLQMNSLKPEDTAVYYCAAVIVSRGRKYRLDYWGQGTQVTVSS | high polyreactivity
QVQLVESGGGLVQAGGSLRLSCAASGRIFTWNARGWYRQAPGKERELVARISSGTRTNYADSVKGRFTISRDNAKNTVYLQMYSLKPEDTAVYYCAAAAKRTDAYHNRRYYWGQGTQVTVSS | high polyreactivity
QVQLVESGGGLVQAGGSLRLSCAASGRTFGGNAMGWYRQAPGKERELVATIRSSSSTNYADSVKGRFTISRDNAKNTVYVQMNSLKQEDTAVYYCNAARPDALNTYGYGFDYWGQGTQVTVSS | low polyreactivity
QVQLVESGGGLVQAGGSIRLSCAASGSTFDPYAMGWYRQAPGKEREVVAAISGSRGGSTNYADSVKGRFTISRDNAKNTVYLQMNSLKQEDTAVFYCNARFSYRNGHYYRYYYGGQGTQVTVSS | high polyreactivity
QVQLVESGGGLLQAGGSLRLSCAASGITFYLYAMGWYRQAPGKVRELVAAITKSGASTYYADSVKGRFTISRDNAKNTVYLQMNSLKPEDTAVYYCAAVLQSGYGYEYWGQGTQVTVSS | high polyreactivity
QVQLVESGGGLVQAGGSLRLSCAASGSTFGVYAMGWYRQAPGKERELVAAINYSGRTYYADSVKGRFTISRDNAKNTVYLQMNSLKPEDTAVYYCAARIIVDDVGTKYYYWGQGTQVTVSS | high polyreactivity
QVQHVESGGGLGQARRSLRLSCAASGTIINANAMGWDRQAPGKERELVASISGGAGSTYYADSVKGRFTISRDNAKNTVYLQMNSLKPEDTAVYYCAADRPYRYDYWGQGTQVTVSS | low polyreactivity
QVQLVESGGGIVQAGGSLRLSCAASGRIFIWYDMGWYRQAPGKERELVAAITQSDDITYYADSVKGRFTISLDNAKNTVYLQMNSLKPEDTAVYYCAVDKPYPYRIIIWYEYDYWGQGTQVSVSS | low polyreactivity
QVQLVESGGGLVQAGGSLRLSCAASGRIFSYNTVMGWYRQAPGKERELVAAITYSSASTYYADSVKGRFTISRDNAKNTVYLQMNSLKPEDTAVYYCAADAYTPGYRGDYWGQGTQVTVSS | low polyreactivity
QVQLVESGGRLVQSGGSLRLSCAASGFIFSYNAMGLYRQAPGKERELVASIRTRGGSTYYADSVKGRFTISRDNAKNSVYLQMNSLKPEDTAVYYCAARPFQRRYDYWGQGTQVTVST | low polyreactivity

Sequence | polyreactivity (PSR sort gate)
QVQLVESGGGLVQAGGSLRLSCAASGRIFRGNAMGWYRQAPGKERQLVADINRSGGSTYYADSVKGRFTISRDNAKNTVYLQMNSLKPEDTAVYYCNAKYRVPYAVGGDYGYWGQGTQVTVSS | high polyreactivity
QVQLVESGAGLVQAGGSLRLSCAASGRTFRYSAMGWYRQAPGKERELVAAISSRGNTYYADSVKGRFTISRDNAKNTVYLQMNTLKPEDTAVYYCAAYVYRVQYDFDYWGQGTQVTVSS | high polyreactivity
NVQLVESGGGLVQAGGSLRLSCAASGSTFDYYDMGWYRQAPWKERELVATITSGGSTNYADSVKGRFTITRDNAKNTVYLLMHSLKPEDTAVYYCDARIRSVVPFDMDYWGQGTQVTVSW | low polyreactivity
QVQLVESGGGLVQAGGSLRLSCASSGRTIYGSTKGWYRQAPGKESELGAAIRRSGGSTYYADSVKGRFTISRDNAKNTVYFQMNRLNPEDTAVYYCAASWRDIYRHYNVYPYDYWGQGTQVTVSS | low polyreactivity
QVQLVESGGGLVQAGGSLRLSCAASGSIIRDNAMGWYRQAPGKERELVAAISVSGGRTYYADSVKGRFTISRDNAKNTVYLQMNSLKPEDTAVYYCAALRRPSYPGRFAELDYWGQGTQVTVSS | high polyreactivity
QVQLVESGGGLVQAGGSLRLSCAASGGTFRPNAMGWYRQAPGKERELVAAITRSGGSTYYADSVKGRFTISRDNAKNTVYLQMNSLKPEDTAVYYCARDLRECGQGTQVTVSS | low polyreactivity
QVQLVESGGGLVQAGGSLRLSCAASGSIFPDNTMGWYRQSPGKDRELVGAIDGRGGTTYYADSVKGSFTISRDNAKNTVYLQMNSLKPEDTAVYYCARDIGHSASYDYWGQGTQVTVSS | low polyreactivity
QVQLVESGLGLVQAGGSLRLSCAASGSTFSNNAMGWYRQAPGKERELVASITRSGGSTYYADTVKGRFTISRDNAKNTVYLQMNSLKPEDTAVYYCNADGYYDYDYGEWGQGTQVTGSS | low polyreactivity
QVQLVESGGGLVHPGGSLRLSCAASGSTFGCNAMGWYRQAPGKERELVSAITFSGGTTYYADSVKGRFTISRDNAKNTVYLQMNSLKPEDTAVYYCNAEWWYQYTGPFAPRGEDYLGQGTQVTVSS | low polyreactivity
QVQLVESGGGLVQAGGSLRLSCAASGFIFYYNGMGRYRQAPGKERELVAAISGGVGSTYYADSVKGRFTISRDNAKNTVYLQMNSLKPEDTAVYYCNAKLYKPPFDYWGQGTQVTLSS | low polyreactivity
QVQLVESGGGLDQAGGSLRLTCAASGGTFVSNAMRWSRQAPGKERELVAAISSSTGSTYYADSVKGRFTISRDNAKKTVYLQMISLKPEDTAVYYCAADSWWDYDSWGQGPQVTVSS | low polyreactivity
QVQLVESGGGLVQAGGSLRLSCAASGINFNRYAMGWYRQAPGNERELVAAITSSGGSTHYADSVKGRFTISRDNAKNTVYLQMNSLKPEDTAVYYCAKQFPNNYRYYLHYYYWGQGTQVTVSS | low polyreactivity
QVQLVESGRGLVQAGGSLRLSCAASGGTFRTYAMAWYRQAPGKERELVAAISVSGGRTYYADSVKGRFTISRDNAKNTVYLQMNSLKPEDTAVYYCAAYWHGFFKYWEMGYWGQGTQVTVSS | high polyreactivity
QVQLVESWGGLVQAGGSLRLICAASGSTFYYNAMGWYRQAPGKEREFVAAISSRRGSTYYADSVKGRFTISRDNAKNTVYLQMNSLKQEDTAVYYCAAKYSHRYDWGQGTQVTVSA | high polyreactivity
QVQLVESGGGLVQAGGSLRLSCAASGFIFGQYALGGYRQAPGKERELVAVITSSGGRTYYADSVKGRFTISRDNAKNTVYLQMNSLKPEDTAVYYCAAPGYGLQVRGRYGYWGQGTQVTVSS | high polyreactivity
